The results in this text go back to patent US20250026849A1 (ARCELLX, published 2025).

T1: P26 (human, UniProt P02771 381-609, limits assumed)
T1 construct: also called AFP p26
T1 sequence: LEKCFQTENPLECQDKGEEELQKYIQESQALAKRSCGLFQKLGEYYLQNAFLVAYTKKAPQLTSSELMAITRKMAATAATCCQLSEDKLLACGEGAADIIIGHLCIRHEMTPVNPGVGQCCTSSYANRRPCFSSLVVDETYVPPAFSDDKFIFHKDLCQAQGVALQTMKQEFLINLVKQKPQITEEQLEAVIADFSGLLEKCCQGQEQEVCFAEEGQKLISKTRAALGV

B1: D domain SEQ ID NO: 900 (designed binder)
chain: MGSWAEFSDRLNAIDQRLWALGGSEAELAAFEKEIAAFESELQAYKGKGNPEVEILREHAAEIRKFLQAYRHN
B2: D domain SEQ ID NO: 922 (designed binder)
chain: MGSWFEFSNRLYAIWHRLTALGGSEAELAAFEKEIAAFESELQAYKGKGNPEVESLRTQAAFIRILLQAYRHN
B3: D domain SEQ ID NO: 924 (designed binder)
chain: MGSWFEFEDRLFAIWTRLEALGGSEAELAAFEKEIAAFESELQAYKGKGNPEVESLRQSAASIRWLLQAYRHN
B4: D domain SEQ ID NO: 925 (designed binder)
chain: MGSWHEFSERLFAIWTRLEALGGSEAELAAFEKEIAAFESELQAYKGKGNPEVEALRQSAAFIRVMLQAYRHN
B5: D domain SEQ ID NO: 923 (designed binder)
chain: MGSWFEFSDRLYAIWERLDALGGSEAELAAFEKEIAAFESELQAYKGKGNPEVESLRFQAAFIRYQLQAYRHN
B6: D domain SEQ ID NO: 897 (designed binder)
chain: MGSWSEFHTRLDAIDTRLWALGGSEAELAAFEKEIAAFESELQAYKGKGNPEVEDLRRHAAAIRFWLQAYRHN
B7: D domain SEQ ID NO: 920 (designed binder)
chain: MGSWSEFTDRLFAIEDRLLALGGSEAELAAFEKEIAAFESELQAYKGKGNPEVEDLRMHAASIRLWLQAYRHN
B8: D domain SEQ ID NO: 901 (designed binder)
chain: MGSWMEFNHRLQAIDGRLWALGGSEAELAAFEKEIAAFESELQAYKGKGNPEVEMLREHAAAIRAFLQAYRHN
B9: D domain SEQ ID NO: 915 (designed binder)
chain: MGSWYEFYDRLDAIEDRLFALGGSEAELAAFEKEIAAFESELQAYKGKGNPEVESLRDQAAYIRTWLQAYRHN
B10: D domain SEQ ID NO: 914 (designed binder)
chain: MGSWYEFYLRLSAIEDRLFALGGSEAELAAFEKEIAAFESELQAYKGKGNPEVESLRVQAAHIRTWLQAYRHN
B11: D domain SEQ ID NO: 917 (designed binder)
chain: MGSWVEFYHRLEAIEQRLMALGGSEAELAAFEKEIAAFESELQAYKGKGNPEVESLREQAAAIRSWLQAYRHN
B12: D domain SEQ ID NO: 910 (designed binder)
chain: MGSWYEFVIRLDAIEDRLFALGGSEAELAAFEKEIAAFESELQAYKGKGNPEVEHLRVHAAHIRVWLQAYRHN
B13: D domain SEQ ID NO: 909 (designed binder)
chain: MGSWVEFVTRLEAIEDRLFALGGSEAELAAFEKEIAAFESELQAYKGKGNPEVEHLRAHAAHIRHWLQAYRHN
B14: D domain SEQ ID NO: 899 (designed binder)
chain: MGSWTEFYQRLDAIDTRLWALGGSEAELAAFEKEIAAFESELQAYKGKGNPEVEGLRQQAAQIRAWLQAYRHN
B15: D domain SEQ ID NO: 898 (designed binder)
chain: MGSWLEFHSRLDAIDTRLWALGGSEAELAAFEKEIAAFESELQAYKGKGNPEVEKLREHAAAIRHYLQAYRHN
B16: D domain SEQ ID NO: 903 (designed binder)
chain: MGSWYEFYYRLEAIDNRLIALGGSEAELAAFEKEIAAFESELQAYKGKGNPEVEVLREHAAKIREWLQAYRHN
B17: D domain SEQ ID NO: 913 (designed binder)
chain: MGSWSEFYYRLAAIESRLFALGGSEAELAAFEKEIAAFESELQAYKGKGNPEVERLREHAAHIRRWLQAYRHN
B18: D domain SEQ ID NO: 916 (designed binder)
chain: MGSWHEFWVRLEAIESRLFALGGSEAELAAFEKEIAAFESELQAYKGKGNPEVESLRVQAAHIRSWLQAYRHN
B19: D domain SEQ ID NO: 905 (designed binder)
chain: MGSWYEFSHRLEAIEDRLFALGGSEAELAAFEKEIAAFESELQAYKGKGNPEVEPLREHAAYIRHWLQAYRHN
B20: D domain SEQ ID NO: 907 (designed binder)
chain: MGSWIEFKYRLDAIEWRLEALGGSEAELAAFEKEIAAFESELQAYKGKGNPEVESLRIHAAAIRTWLQAYRHN
B21: D domain SEQ ID NO: 918 (designed binder)
chain: MGSWVEFYERLNAIEYRLEALGGSEAELAAFEKEIAAFESELQAYKGKGNPEVESLREHAAYIRQWLQAYRHN
B22: D domain SEQ ID NO: 902 (designed binder)
chain: MGSWYEFYKRLEAIDNRLYALGGSEAELAAFEKEIAAFESELQAYKGKGNPEVEYLREHAAAIRHWLQAYRHN
B23: D domain SEQ ID NO: 911 (designed binder)
chain: MGSWVEFVERLDAIEFRLFALGGSEAELAAFEKEIAAFESELQAYKGKGNPEVEKLRNHAAHIRSWLQAYRHN
B24: D domain SEQ ID NO: 904 (designed binder)
chain: MGSWYEFVSRLEAIDDRLYALGGSEAELAAFEKEIAAFESELQAYKGKGNPEVEMLRQHAAAIRHWLQAYRHN
B25: D domain SEQ ID NO: 912 (designed binder)
chain: MGSWSEFVHRLDAIEVRLFALGGSEAELAAFEKEIAAFESELQAYKGKGNPEVEELRYHAAKIRSWLQAYRHN
B26: D domain SEQ ID NO: 908 (designed binder)
chain: MGSWYEFMYRLDAIEYRLFALGGSEAELAAFEKEIAAFESELQAYKGKGNPEVESLRIHAAMIREWLQAYRHN
B27: D domain SEQ ID NO: 906 (designed binder)
chain: MGSWFEFFERLAAIEDRLWALGGSEAELAAFEKEIAAFESELQAYKGKGNPEVESLRVHAAAIRAFLQAYRHN
B28: D domain SEQ ID NO: 926 (designed binder)
chain: MGSWGEFTVRLYAIDRRLDALGGSEAELAAFEKEIAAFESELQAYKGKGNPEVEELRRFAAIIRAFLQAYRHN
B29: D domain SEQ ID NO: 921 (designed binder)
chain: MGSWHEFYDRLYAIWDRLDALGGSEAELAAFEKEIAAFESELQAYKGKGNPEVEGLRNAAAVIRIFLQAYRHN
B30: D domain SEQ ID NO: 919 (designed binder)
chain: MGSWVEFYHRLDAIFDRLDALGGSEAELAAFEKEIAAFESELQAYKGKGNPEVEELRANAAGIRSWLQAYRHN
B31: D domain SEQ ID NO: 927 (designed binder)
chain: MGSWYEFDHRLMAISFRLVALGGSEAELAAFEKEIAAFESELQAYKGKGNPEVETLRRRAANIRHLLQAYRHN

This test has as its target T1, P26. As to the kind of experiment: ELISA, format not described. More on the design: unit not given here. Background: An ELISA detects its analyte on a solid surface through an enzyme-linked reagent.
For the molecule B1, the ELISA_avg was 25.3. The same measure for B2: 15.2.

On to B3, for which the ELISA_avg amounted to 10.9.

Molecule B4 came in with an ELISA_avg of 8.21. B5 gave an ELISA_avg of 19. The same measure for B6: 23.5; for B7: 25.4; for B8: 33.4. The same measure for B9: 31.9.

In the case of B10, the ELISA_avg was found to be 27.4.

Consider B11, for which the ELISA_avg is 28.5. The same measure for B12: 30.1; for B13: 11.7; for B14: 29.7. B15 registered an ELISA_avg of 30.8.

For the molecule B16, the ELISA_avg stood at 29.6.

The molecule B17 came in with an ELISA_avg of 30.8. In turn, B18 registered an ELISA_avg of 26.9.

Molecule B19 had an ELISA_avg of 26. The molecule B20 displayed an ELISA_avg of 18.3. The same measure for B21: 28.7; for B22: 30.8. To B23 belongs 23.8; to B24, 33.1; to B25, 16.9. The same measure for B26: 19.4. As to B27, the ELISA_avg was found to be 20.3. As for B28, the ELISA_avg turned out to be 8.54. To B29 belongs 22.9; to B30, 20; to B31, 20.1.
